Data taken from publication PMC3167620.
Read-outs that look alike come from different tables or passages of the source.

Tests used:
[1] = biological target: T1, G4R1/RHAU (G4 Resolvase 1) (human, UniProt Q9H2U1 1-1008); assay: competition
T1 sequence: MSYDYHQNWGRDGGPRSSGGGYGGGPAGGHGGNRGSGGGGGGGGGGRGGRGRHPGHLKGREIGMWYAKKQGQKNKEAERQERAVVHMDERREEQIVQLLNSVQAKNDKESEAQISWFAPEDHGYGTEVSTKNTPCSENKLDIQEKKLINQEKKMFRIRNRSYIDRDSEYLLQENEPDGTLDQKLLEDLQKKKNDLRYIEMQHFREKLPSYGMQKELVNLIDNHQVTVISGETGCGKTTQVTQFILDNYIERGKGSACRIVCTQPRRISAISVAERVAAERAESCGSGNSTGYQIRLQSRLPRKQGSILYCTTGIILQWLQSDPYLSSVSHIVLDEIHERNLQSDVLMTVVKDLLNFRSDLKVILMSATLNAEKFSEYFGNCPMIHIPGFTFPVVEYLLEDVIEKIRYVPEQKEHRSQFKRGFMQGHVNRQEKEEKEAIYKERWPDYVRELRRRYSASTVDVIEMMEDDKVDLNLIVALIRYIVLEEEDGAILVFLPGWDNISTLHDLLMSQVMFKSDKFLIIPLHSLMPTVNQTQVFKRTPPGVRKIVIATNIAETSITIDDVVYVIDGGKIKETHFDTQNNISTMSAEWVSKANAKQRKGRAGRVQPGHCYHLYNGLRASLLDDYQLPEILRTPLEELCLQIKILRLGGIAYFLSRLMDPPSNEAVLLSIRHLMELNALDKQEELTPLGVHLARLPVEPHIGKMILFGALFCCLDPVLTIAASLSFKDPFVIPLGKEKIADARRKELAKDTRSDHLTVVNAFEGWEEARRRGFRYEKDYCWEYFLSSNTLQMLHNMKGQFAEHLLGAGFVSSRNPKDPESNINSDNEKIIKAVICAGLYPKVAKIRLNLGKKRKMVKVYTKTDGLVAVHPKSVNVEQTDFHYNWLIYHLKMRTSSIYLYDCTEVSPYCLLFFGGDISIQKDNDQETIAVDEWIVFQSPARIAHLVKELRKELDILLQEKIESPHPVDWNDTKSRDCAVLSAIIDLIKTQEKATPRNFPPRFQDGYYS

[2] = biological target: T1, G4R1/RHAU (G4 Resolvase 1); assay: EMSA
[3] = biological target: T1, G4R1/RHAU (G4 Resolvase 1); assay: EMSA; remark: listed apart in the source
[4] = biological target: T2, G4R1/RHAU E335A (Walker B, ATPase-dead) (human, UniProt Q9H2U1 1-1008, E335A); assay: EMSA
T2 sequence: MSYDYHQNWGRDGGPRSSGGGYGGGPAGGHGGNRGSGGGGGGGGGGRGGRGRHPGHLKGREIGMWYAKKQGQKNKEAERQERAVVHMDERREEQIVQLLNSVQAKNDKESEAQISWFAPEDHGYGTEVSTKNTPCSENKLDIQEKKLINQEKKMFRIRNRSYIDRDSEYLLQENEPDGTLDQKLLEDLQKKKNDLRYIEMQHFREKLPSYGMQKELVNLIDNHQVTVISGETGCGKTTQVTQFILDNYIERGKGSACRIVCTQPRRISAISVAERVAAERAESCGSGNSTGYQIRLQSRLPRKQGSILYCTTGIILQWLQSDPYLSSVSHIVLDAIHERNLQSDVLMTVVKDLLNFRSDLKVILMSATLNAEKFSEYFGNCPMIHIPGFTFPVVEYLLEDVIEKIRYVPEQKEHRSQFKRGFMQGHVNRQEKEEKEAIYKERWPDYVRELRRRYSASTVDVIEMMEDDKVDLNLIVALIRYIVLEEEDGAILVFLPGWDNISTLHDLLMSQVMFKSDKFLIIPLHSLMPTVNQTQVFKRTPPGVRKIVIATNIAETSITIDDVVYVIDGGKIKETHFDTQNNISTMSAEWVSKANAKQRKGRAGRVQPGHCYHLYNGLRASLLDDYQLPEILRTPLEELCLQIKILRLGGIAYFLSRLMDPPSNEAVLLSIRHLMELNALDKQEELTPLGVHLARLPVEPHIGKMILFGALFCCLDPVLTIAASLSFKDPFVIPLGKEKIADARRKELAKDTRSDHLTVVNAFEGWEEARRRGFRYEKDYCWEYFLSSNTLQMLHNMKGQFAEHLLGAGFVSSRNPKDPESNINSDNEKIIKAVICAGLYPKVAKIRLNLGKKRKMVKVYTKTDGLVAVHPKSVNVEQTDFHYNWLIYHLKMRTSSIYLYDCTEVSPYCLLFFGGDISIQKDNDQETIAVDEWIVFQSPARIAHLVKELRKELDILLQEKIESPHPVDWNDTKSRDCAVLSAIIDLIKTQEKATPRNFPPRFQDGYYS

[5] = biological target: T1, G4R1/RHAU (G4 Resolvase 1); assay: EMSA; remark: listed apart in the source
[6] = biological target: T1, G4R1/RHAU (G4 Resolvase 1); assay: competition; remark: listed apart in the source
[7] = biological target: T1, G4R1/RHAU (G4 Resolvase 1); assay: EMSA; remark: listed apart in the source

B1: c-Myc DNA 51-mer, unimolecular G4 (structured_DNA)
DNA: GGCCGCTTATGGGGAGGGTGGGGAGGGTGGGGAAGGTGGGGAGGAGACTCA
Q: Which IC50 [1] does the source give for B1 here?
A: Its IC50 is 0.06 competitor:substrate molar ratio.

Q: What about the Kd [2] of the same binder?
A: The Kd was 4.4 ± 0.6 pM.

Q: For AAAAAAAAAAGGGTGGGGGGGCGGGGGAGGCCGGGGAAAAAAAAAA (structured_DNA) [Poly A Zic1 DNA 47-mer, unimolecular G4], which Kd [3] is on record?
A: The Kd was 5 pM.

Q: Does AAAAAAAAAAGGGTGGGGGGGCGGGGGAGGCCGGGGAAAAAAAAAA (structured_DNA) [Poly A Zic1 DNA 47-mer, unimolecular G4] bind [4]?
A: Result: binds

Q: And the Kd [2]?
A: Its Kd is 5.7 ± 0.2 pM.

Q: Does AAAAAAAAAAGGGTGGGGGGGCGGGGGAGGCCGGGGAAAAAAAAAA (ssDNA, guanine N7 methylation (DMS)) [Poly A Zic1 47-mer, dimethyl sulfate treated] bind [5]?
A: Result: no binding

Q: Which IC50 [6] does the source give for AAAGTGATGGTGGTGGGGGAAGGATTTTCGAAC (structured_DNA) [Z33 tetramolecular G4-DNA] here?
A: Its IC50 is 1 competitor:substrate molar ratio.

Q: For TTTTTTTTTTGGGTGGGGGGGGCGGGGGAGGCCGGGGTTTTTTTTTT (structured_DNA) [Poly T Zic1 DNA 47-mer, unimolecular G4], which Kd [2] is on record?
A: The Kd was 2.4 ± 0.2 pM.

Q: How did the Kd [7] turn out when AGAAGAGAGAGAGTGAGAGAGACGAGAGAGGCCGAGAAGAGAGAGAG (ssDNA) [Scrambled Zic1 DNA 47-mer] was run?
A: Its Kd is over 300 pM.
